# Assays:
# [1] = Hepatotoxicity and nephrotoxicity markers (AST, ALT, BUN) in COLO205 tumor-bearing mice; conditions: final day of observation
# Protocol: As a comparison group, a group (oxaliplatin administration group) was set by administering 33 μL of oxaliplatin into the tail vein at a dose of 5 mg/mL 3 times every other week. […] Each group contained 6 mice, and observation of general condition and measurement of the body weight and tumor volume were performed until the end of the observation period. In the Figure, the vertical axis indicates mean tumor volume of each group, and the horizontal axis indicates the number of days elapsed since administration of each medicament. […] On the final day of observation, the mice were autopsied, and the blood was collected. The collected blood was analyzed by a dry chemistry analyzer (SPOTCHEM D-02, manufactured by ARKRAY, Inc.) by measuring aspartate aminotransferase (AST), alanine aminotransferase (ALT), and blood urea nitrogen (BUN) in plasma by using SPOTCHEM D Total-A2 (manufactured by ARKRAY, Inc.), and hepatotoxicity and nephrotoxicity were evaluated.
# [2] = test system: SW48 cells and COLO205 cells; assay: Apoptosis induction, Caspase-Glo 3/7 Assay; assay type: cell-based, human; conditions: 72 hours, both cells
# Protocol: In addition, unlabeled panitumumab was added to an antibody concentration the same as that of the group at each radioactivity concentration, and the cells were cultured. After 72 hours from the sample addition, an apoptosis assay kit (Caspase-Glo (registered trademark) 3/7 Assay, manufactured by Promega) was added, and Caspase-3/7 activity was detected using a microplate reader.
# [3] = test system: COLO205 cells, HCT-116 cells, SW48 cells, MIAPaCa-2 cells, NCI-H358 cells; assay: Cytotoxic effect on cultured cells, overall statement; assay type: cell-based, human; conditions: 120 hours; up to maximum concentration added (antibody concentration 156 nM)
# Protocol: In addition, unlabeled panitumumab was added to an antibody concentration the same as that of the sample at each radioactivity concentration, and the cells were cultured. After 120 hours from the sample addition, CellTiter-Glo (registered trademark) 2.0 Cell Viability Assay (manufactured by Promega) was added to the medium, chemiluminescence was detected using a microplate reader (SpectraMax i3x, manufactured by Molecular Devices, LLC), and the number of viable cells was calculated. The ratio of the number of viable cells under conditions where no antibody was added to the calculated number of viable cells was taken, and the cytotoxic effect was evaluated. Furthermore, the obtained results were fitted by a […] regression method using GraphPad Prism 7 (manufactured by GraphPad Software), and EC50 was calculated.
# [4] = test system: tumor derived from COLO205 cells; assay: Accumulation in tumor, PET imaging in COLO205 tumor-bearing mice; assay type: in vivo, mouse
# Protocol: COLO205 cells of EGFR high expression human colorectal cancer-derived cell line purchased from ATCC were suspended in DMEM medium and administered subcutaneously to the flanks of 5-week-old female BALB/c nu/nu (Charles River Laboratories Japan, Inc.) at 5×10^6 cells to prepare tumor-bearing mice. The tumor volume was allowed to grow to about 100 to 250 mm^3, and the radioconjugate produced as described in Example 7 was administered at a dose of about 6 MBq/mouse (each n=3) into the tail vein. After 72 hr and 120 hr from the administration, images were taken using a small animal PET imaging device under conditions similar to those in Evaluation 2.
# The arrow in the image indicates a tumor derived from COLO205 cells used for tumor-bearing. When VOI was set for the tumor and muscle (femoral muscle) in each imaged mouse and the SUV (Standard Uptake Value) was calculated, the value was 3.18±0.72 for tumor and 0.48±0.02 for muscle at 72 hr after administration and 4.38±0.96 for tumor and 0.48±0.05 for muscle at 120 hr after administration. Using the values, the radioactivity accumulation ratio of tumor to muscle was calculated. As a result, the ratio was 6.67±1.52 at 72 hr after administration and 9.19±2.02 at 120 hr after administration, and a higher level of radioactivity was accumulated in the tumor as compared with other organs and EGFR positive tumor could be depicted.
compound,measurement,setting,value
"O=C1[O][Pt]2([NH][C@@H]3CCCC[C@H]3[NH]2)[O]C1=O [oxaliplatin, reference compound]","hepatotoxicity and nephrotoxicity (AST, ALT, BUN in plasma)",[1],no hepatotoxicity or nephrotoxicity was confirmed
"panitumumab [unlabeled panitumumab, reference compound]",apoptosis induction (Caspase-3/7 activity),[2],apoptosis induction was not confirmed
same,cytotoxic effect,[3],no cytotoxic effect was confirmed
Example 7: Complex with panitumumab using 89Zr-labeled DOTAGA-DBCO,"SUV (Standard Uptake Value), muscle (femoral muscle)",[4]; 72 hr after administration,0.48±0.02
same,"SUV (Standard Uptake Value), muscle (femoral muscle)",[4]; 120 hr after administration,0.48±0.05
same,"SUV (Standard Uptake Value), tumor",[4]; 120 hr after administration,4.38±0.96
same,"SUV (Standard Uptake Value), tumor","[4]; about 6 MBq/mouse tail vein, 72 hr after administration",3.18±0.72

# From US20240207463A1, “RADIOACTIVE COMPLEX OF ANTI-EGFR ANTIBODY, AND RADIOPHARMACEUTICAL” (NIHON MEDI-PHYSICS CO., LTD., priority 2021, published 2024)
